According to US20090196913A1 (published 2009):

Target: human αVβ3/5 integrins on human tumor cells (A375.S2, MDA-MB-231, A2780, HT29, A549) (human, UniProt P06756 31-1048)
Assay: cell-based or functional assay

Chain of human αVβ3/5 integrins on human tumor cells (A375.S2, MDA-MB-231, A2780, HT29, A549) (P06756 31-1048): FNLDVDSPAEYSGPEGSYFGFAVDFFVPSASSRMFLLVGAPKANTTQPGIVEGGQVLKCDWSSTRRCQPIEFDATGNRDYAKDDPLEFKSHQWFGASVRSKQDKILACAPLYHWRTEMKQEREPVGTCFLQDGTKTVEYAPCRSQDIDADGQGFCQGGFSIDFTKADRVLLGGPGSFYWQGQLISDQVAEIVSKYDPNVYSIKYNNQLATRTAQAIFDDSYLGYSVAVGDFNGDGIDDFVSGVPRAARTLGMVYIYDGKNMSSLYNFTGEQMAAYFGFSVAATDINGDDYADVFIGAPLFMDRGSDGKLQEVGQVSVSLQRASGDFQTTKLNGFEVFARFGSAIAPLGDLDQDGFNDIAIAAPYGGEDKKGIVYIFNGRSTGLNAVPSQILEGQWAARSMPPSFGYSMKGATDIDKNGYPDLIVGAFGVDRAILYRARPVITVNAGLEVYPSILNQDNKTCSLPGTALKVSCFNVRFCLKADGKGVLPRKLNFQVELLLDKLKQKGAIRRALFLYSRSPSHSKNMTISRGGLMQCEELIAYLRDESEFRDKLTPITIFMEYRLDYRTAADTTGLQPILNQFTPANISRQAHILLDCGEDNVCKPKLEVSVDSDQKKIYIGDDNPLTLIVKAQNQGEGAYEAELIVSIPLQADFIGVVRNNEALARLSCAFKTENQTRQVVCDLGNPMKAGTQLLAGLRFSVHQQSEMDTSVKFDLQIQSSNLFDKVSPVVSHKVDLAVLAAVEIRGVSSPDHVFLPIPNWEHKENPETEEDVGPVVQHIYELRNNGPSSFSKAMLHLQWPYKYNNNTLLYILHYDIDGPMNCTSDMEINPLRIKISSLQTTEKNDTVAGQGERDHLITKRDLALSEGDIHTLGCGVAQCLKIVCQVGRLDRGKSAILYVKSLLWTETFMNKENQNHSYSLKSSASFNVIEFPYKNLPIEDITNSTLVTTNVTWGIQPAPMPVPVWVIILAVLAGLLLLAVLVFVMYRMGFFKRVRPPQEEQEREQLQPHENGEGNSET

B1: CNTO95 Fab′ (from pepsin cleavage, reduction and reoxidation) conjugated to PEG-DSPE on the surface of liposomes (Fab, V domains shown)
VH: QVQLVESGGGVVQPGRSRRLSCAASGFTFSRYTMHWVRQAPGKGLEWVAVISFDGSNKYYVDSVKGRFTISRDNSENTLYLQVNILRAEDTAVYYCAREARGSYAFDIWGQGTMVTVSS
VL: EIVLTQSPATLSLSPGERATLSCRASQSVSSYLAWYQQKPGQAPRLLIYDASNRATGIPARFSGSGSGTDFTLTISSLEPEDFAVYYCQQRSNWPPFTFGPGTKVDIKR
modifications: free sulfhydryl near the C-terminus conjugated to maleimide-PEG-DSPE inserted in the liposome
Increase (ratio of IC50 of liposome-entrapped doxorubicin to IC50 of 90:1 integrin-targeted liposomes), breast cancer MDA-MB-231: 5
Increase (ratio of IC50 of liposome-entrapped doxorubicin to IC50 of 90:1 integrin-targeted liposomes), colon cancer HT29: 1.1
Increase (ratio of IC50 of liposome-entrapped doxorubicin to IC50 of 90:1 integrin-targeted liposomes), lung cancer A549: 1
Increase (ratio of IC50 of liposome-entrapped doxorubicin to IC50 of 90:1 integrin-targeted liposomes), melanoma A375.S2: 29
Increase (ratio of IC50 of liposome-entrapped doxorubicin to IC50 of 90:1 integrin-targeted liposomes), ovarian cancer A2780: 29
